In one assay the target is YU2-gp120 (HIV-1 (YU2)) (UniProt P35961). The experiment in a line: competition ELISA on gp120; unlabeled b12 against biotin labeled b12 (self-inhibition). (In general: ELISA stands for enzyme-linked immunosorbent assay.)
Assay [1] has as its target YU2-gp140 trimer (artificially trimerized gp140 protein) (HIV-1 (YU2)) (UniProt P35961). The experiment in a line: SPR (Biacore T100), antibody immobilized on CM5 chip, gp140 trimer injected, 1:1 model. A general note: Surface plasmon resonance follows binding to a sensor surface in real time, without labels.

One may read the IC50 as the midpoint of a concentration-inhibition curve. As a reminder, the Kd is the concentration at which binding is half-saturated. A high value points to a looser complex. With b12 (antibody), the half-inhibitory concentration (IC50) with YU2-gp120 (HIV-1 (YU2)) worked out at 5 µg/mL. Further, in assay [1], the Kd amounted to 12 nM.

For the origin of these results see patent US8673307.
